In publication PMC5467210 (2017):

T1: NatA complex (Naa15-Naa10ΔC-His6) (Chaetomium thermophilum)
T1 chain 1: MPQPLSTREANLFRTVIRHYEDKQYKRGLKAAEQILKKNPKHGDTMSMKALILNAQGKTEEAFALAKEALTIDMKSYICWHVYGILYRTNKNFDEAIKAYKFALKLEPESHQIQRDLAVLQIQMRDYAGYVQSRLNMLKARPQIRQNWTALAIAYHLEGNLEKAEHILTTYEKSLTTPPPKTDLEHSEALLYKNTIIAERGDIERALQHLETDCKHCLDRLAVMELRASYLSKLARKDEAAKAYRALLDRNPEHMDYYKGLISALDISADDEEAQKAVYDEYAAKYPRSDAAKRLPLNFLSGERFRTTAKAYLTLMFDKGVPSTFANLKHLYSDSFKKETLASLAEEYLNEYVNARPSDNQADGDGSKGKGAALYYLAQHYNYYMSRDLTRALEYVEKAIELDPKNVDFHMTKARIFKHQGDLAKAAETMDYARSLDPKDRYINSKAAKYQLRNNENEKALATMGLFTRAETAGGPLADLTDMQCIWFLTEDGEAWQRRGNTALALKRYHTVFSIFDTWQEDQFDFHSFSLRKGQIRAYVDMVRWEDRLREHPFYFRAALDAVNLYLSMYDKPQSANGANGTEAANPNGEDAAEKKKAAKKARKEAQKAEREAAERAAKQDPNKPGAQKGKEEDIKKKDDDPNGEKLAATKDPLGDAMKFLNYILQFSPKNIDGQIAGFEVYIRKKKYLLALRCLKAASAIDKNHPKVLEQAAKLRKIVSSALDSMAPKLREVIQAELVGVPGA
T1 chain 2: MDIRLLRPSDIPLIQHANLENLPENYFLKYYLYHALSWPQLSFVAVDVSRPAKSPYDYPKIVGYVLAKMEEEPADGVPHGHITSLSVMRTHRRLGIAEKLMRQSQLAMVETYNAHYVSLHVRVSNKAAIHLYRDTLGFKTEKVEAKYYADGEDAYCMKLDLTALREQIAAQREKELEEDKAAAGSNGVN

B1: HypK-THB-StrepII (domain or fragment)
chain: GAMGKVDPADVNLLVEELELSKAKATELLKAHDGDAIKAMKAYIQPAFGSGSGSWSHPQFEK
B2: HypKΔN50-StrepII (domain or fragment)
chain: MAPAREVDQEAVKNAMSALSGASTEKKEVKKVKVDPADVNLLVEELELSKAKATELLKAHDGDAIKAMKAYIQPAF

How the values were obtained:
[1] = target: NatA complex (His6-Naa15-Naa10ΔC-His6) (Chaetomium thermophilum); experiment: SEC-MALS; NatA-HypK complex (0.2 mg) on Superdex 200 10/300 in SEC buffer coupled to MALS
[2] = target: T1, NatA complex (Naa15-Naa10ΔC-His6); experiment: ITC; HypK-StrepII variants (100-400 μM) in the syringe, preformed NatA (Naa15-Naa10ΔC-His6, 10-40 μM) in the cell; 25 °C; 20 mM HEPES pH 7.5, 150 mM NaCl, 10 mM MgCl2, 10 mM KCl; single-site model; triplicates
[3] = target: T1, NatA complex (Naa15-Naa10ΔC-His6); experiment: ITC

Kd [3] [nM] | other results | Molecule
 | stoichiometry N [1]: 1 | His6-HypK (full length) (natural protein)
 | Kd [2]: 38.3 nM | HypK-StrepII (full length) (natural protein)
46.9 |  | B1
28.6 |  | B2
